# According to patent publication US20220251595A1, “ENGINEERED ATRLP23 PATTERN RECOGNITION RECEPTORS AND METHODS OF USE” (priority 2019, published 2022):
# B1: AtRLP23-AtPEPR1-3×FLAG: AtRLP23 apoplastic and eJM domains, AtPEPR1 TM and kinase domains, 3×FLAG; SEQ ID NO: 572, 573 (protein)
# chain: MSKALLHLHFLSLFLLCCVCHSSIFTLNFHFTGIVACRPHQIQAFTKFTNEFDTRGCNNSDTFNGVWCDNSTGAVAVLQLRKCLSGTLKSNSSLFGFHQLRYVDLQNNNLTSSSLPSGFGNLKRLEGLFLSSNGFLGQVPSSFSNLTMLAQLDLSYNKLTGSFPLVRGLRKLIVLDLSYNHFSGTLNPNSSLFELHQLRYLNLAFNNFSSSLPSKFGNLHRLENLILSSNGFSGQVPSTISNLTRLTKLYLDQNKLTSSFPLVQNLTNLYELDLSYNKFFGVIPSSLLTLPFLAHLALRENNLAGSVEVSNSSTSSRLEIMYLGSNHFEGQILEPISKLINLKHLDLSFLNTSYPIDLKLFSSLKSLRSLDLSGNSISSASLSSDSYIPLTLEMLTLRHCDINEFPNILKTLKELVYIDISNNRMKGKIPEWLWSLPLLQSVTLGNNYFTGFQGSAEILVNSSVLLLYLDSNNFEGALPDLPLSIKGFGVASNSFTSEIPLSICNRSSLAAIDLSYNNFTGPIPPCLRNLELVYLRNNNLEGSIPDALCDGASLRTLDVSHNRLTGKLPRSFVNCSSLKFLSVINNRIEDTFPFWLKALPNLQVLTLRSNRFYGPISPPHQGPLGFPELRIFEISDNKFTGSLPPNYFVNWKASSRTMNQDGGLYMVYEEKLFDEGGYGYTDALDLQYKGLHMEQAKALTSYAAIDFSGNRLEGQIPESIGLLKALIAVNISNNAFTGHIPLSMANLENLESLDMSRNQLSGTIPNGLGSISFLAYINVSHNQLTGEIPQGTQITGQSKSSFEGNAGLCGLPLKESCFGTGAPPMYHQKQEDKEEEEEEEEEEEEVLNGRIVLIAVLSSLLVLVVVLALVFICLRRRKGRPEKDAYVFTQEEGPSLLLNKVLAATDNLNEKYTIGRGAHGIVYRASLGSGKVYAVKRLVFASHIRANQSMMREIDTIGKVRHRNLIKLEGFWLRKDDGLMLYRYMPKGSLYDVLHGVSPKENVLDWSARYNVALGVAHGLAYLHYDCHPPIVHRDIKPENILMDSDLEPHIGDFGLARLLDDSTVSTATVTGTTGYIAPENAFKTVRGRESDVYSYGVVLLELVTRKRAVDKSFPESTDIVSWVRSALSSSNNNVEDMVTTIVDPILVDELLDSSLREQVMQVTELALSCTQQDPAMRPTMRDAVKLLEDVKHLARSCSSDSVRSDYKDHDGDYKDHDLDAAAADYKDDDDK
# modifications: Fusion protein
# Tested on: corn protoplasts
# Experiment: Calcium burst in transiently transfected corn protoplasts, apoaequorin luminescence reporter
molecule,measurement,setting,value
B1,Ca^2+ burst in response to all tested NLP peptides,"Example 6, FIG. 8, CgNLP24b, FgNLP24c, FvNLP24a, SmNLP24",Ca^2+ burst
same,increase in Ca^2+ compared to control buffer treatment,"FIG. 8, all peptides tested",statistically significant
